Source: patent US10801046B2, “Methods and materials for biosynthesizing multifunctional, multivariate molecules via carbon chain modification” (INVISTA NORTH AMERICA S.A.R.L., priority 2016, dated 2020)

Tests used:
Type in all cases: biochemical
[1] = Aminotransferase activity, reverse direction (7-aminoheptanoate to 7-oxoheptanoate), L-alanine formation by RP-HPLC; details: cell free extract, 10 mM substrate, 25° C., 4 h, against empty vector control, FIG. 48
Protocol: (§1) A sequence encoding an N-terminal His-tag was added to the genes from Chromobacterium violaceum, Pseudomonas syringae, Rhodobacter sphaeroides, and Vibrio Fluvialis encoding the aminotransferases of SEQ ID NOs: 116 (GenBank Accession No. AAQ59697.1), 126 (GenBank Accession No. AAY39893.1), 127 (GenBank Accession No. ABA81135.1), and 128 (GenBank Accession No. AEA39183.1), respectively such that N-terminal HIS tagged aminotransferases could be produced. Each of the resulting modified genes was cloned into a pET21a expression vector under control of the T7 promoter and each expression vector was transformed into a BL21 [DE3] E. coli host. The resulting recombinant E. coli strains were cultivated at 37° C. in a 250 mL shake flask culture containing 50 mL LB media and antibiotic selection pressure, with shaking at 230 rpm. Each culture was induced overnight at 16° C. using 1 mM IPTG.
(§2) The pellet from each induced shake flask culture was harvested via centrifugation. Each pellet was resuspended and lysed via sonication. The cell debris was separated from the supernatant via centrifugation and the cell free extract was used immediately in enzyme activity assays.
Enzyme activity assays in the reverse direction (i.e., 7-aminoheptanoate to 7-oxoheptanoate) were performed in a buffer composed of a final concentration of 50 mM HEPES buffer (pH=7.5), 10 mM 7-aminoheptanoate, 10 mM pyruvate and 100 μM pyridoxyl 5′ phosphate. Each enzyme activity assay reaction was initiated by adding cell free extract of the aminotransferase gene product or the empty vector control to the assay buffer containing the 7-aminoheptanoate and incubated at 25° C. for 4 h, with shaking at 250 rpm. The formation of L-alanine from pyruvate was quantified via RP-HPLC.

[2] = Aminotransferase activity, 7-aminoheptanol to 7-oxoheptanol, L-alanine formation by RP-HPLC; details: cell free extract, 10 mM substrate, 25° C., 4 h, against empty vector control, FIG. 52
Protocol: (§3) A nucleotide sequence encoding an N-terminal His-tag was added to the Chromobacterium violaceum, Pseudomonas syringae and Rhodobacter sphaeroides genes encoding the aminotransferases of SEQ ID NOs: 116 (GenBank Accession No. AAQ59697.1), 126 (GenBank Accession No. AAY39893.1), and 127 (GenBank Accession No. ABA81135.1), respectively such that N-terminal HIS tagged aminotransferases could be produced. The modified genes were cloned into a pET21a expression vector under the T7 promoter. Each expression vector was transformed into a BL21[DE3] E. coli host. Each resulting recombinant E. coli strain were cultivated at 37° C. in a 250 mL shake flask culture containing 50 mL LB media and antibiotic selection pressure, with shaking at 230 rpm. Each culture was induced overnight at 16° C. using 1 mM IPTG.
as §2
Enzyme activity assays in the reverse direction (i.e., 7-aminoheptanol to 7-oxoheptanol) were performed in a buffer composed of a final concentration of 50 mM HEPES buffer (pH=7.5), 10 mM 7-aminoheptanol, 10 mM pyruvate, and 100 μM pyridoxyl 5′ phosphate. […] The formation of L-alanine was quantified via RP-HPLC.

[3] = Aminotransferase activity, heptane-1,7-diamine to 7-aminoheptanal, L-alanine formation by RP-HPLC; details: cell free extract, 10 mM substrate, 25° C., 4 h, against empty vector control, FIG. 50
Protocol: as §3, with “A” for “A nucleotide”, “aeruginosa, Pseudomonas syringae, Rhodobacter sphaeroides, Escherichia coli,” for “syringae”, “Vibrio fluvialis” for “Rhodobacter sphaeroides”, “AAQ59697.1), 119 (RefSeq Accession No. NP_417544.5), 125 (GenBank Accession No. AAGO8191.1),” for “AAQ59697.1),”, “AAY39893.1),” for “AAY39893.1), and”, “ABA81135.1), and 128 (GenBank Accession No. AEA39183.1),” for “ABA81135.1),”
as §2
Enzyme activity assays in the reverse direction (i.e., heptane-1,7-diamine to 7-aminoheptanal) were performed in a buffer composed of a final concentration of 50 mM HEPES buffer (pH=7.5), 10 mM heptane-1,7-diamine, 10 mM pyruvate, and 100 μM pyridoxyl 5′ phosphate. Each enzyme activity assay reaction was initiated by adding cell free extract of the aminotransferase gene product or the empty vector control to the assay buffer containing the heptane-1,7-diamine and then incubated at 25° C. for 4 h, with shaking at 250 rpm. The formation of L-alanine was quantified via RP-HPLC.

[4] = Aminotransferase activity, N7-acetyl-1,7-diaminoheptane to N7-acetyl-7-aminoheptanal, L-alanine formation by RP-HPLC; details: cell free extract, 10 mM substrate, 25° C., 4 h, against empty vector control, FIG. 51
Protocol: The activity of the N-terminal His-tagged aminotransferases of SEQ ID NOs: 116 (GenBank Accession No. AAQ59697.1), 119 (RefSeq Accession No. NP_417544.5), 125 (GenBank Accession No. AAGO8191.1), 126 (GenBank Accession No. AAY39893.1), 127 (GenBank Accession No. ABA81135.1), and 128 (GenBank Accession No. AEA39183.1) (see Example 6) for converting N7-acetyl-1,7-diaminoheptane to N7-acetyl-7-aminoheptanal was assayed using a buffer composed of a final concentration of 50 mM HEPES buffer (pH=7.5), 10 mM N7-acetyl-1,7-diaminoheptane, 10 mM pyruvate and 100 μM pyridoxyl 5′ phosphate. Each enzyme activity assay reaction was initiated by adding a cell free extract of the aminotransferases or the empty vector control to the assay buffer containing the N7-acetyl-1,7-diaminoheptane then incubated at 25° C. for 4 h, with shaking at 250 rpm. The formation of L-alanine was quantified via RP-HPLC.

[5] = Aminotransferase activity, forward direction (7-oxoheptanoate to 7-aminoheptanoate), pyruvate formation by RP-HPLC; details: cell free extract, 10 mM substrate, 10 mM L-alanine, 25° C., 4 h, against empty vector control, FIG. 49
Protocol: as §1
The pellet from each induced shake flask culture was harvested via centrifugation. Each pellet was resuspended and lysed via sonication. […]
Enzyme activity in the forward direction (i.e., 7-oxoheptanoate to 7-aminoheptanoate) was confirmed for the aminotransferases of SEQ ID NO: 126 (GenBank Accession No. AAY39893.1), SEQ ID NO: 127 (GenBank Accession No. ABA81135.1), and SEQ ID NO: 128 (GenBank Accession No. AEA39183.1). […] The formation of pyruvate was quantified via RP-HPLC.

| Molecule | acceptance of 7-aminoheptanoate as substrate [1] | acceptance of 7-aminoheptanol as substrate, forming 7-oxoheptanol [2] | acceptance of heptane-1,7-diamine as substrate, forming 7-aminoheptanal [3] | acceptance of N7-acetyl-1,7-diaminoheptane as substrate, forming N7-acetyl-7-aminoheptanal [4] | acceptance of 7-oxoheptanoate as substrate, forming 7-aminoheptanoate [5] |
| --- | --- | --- | --- | --- | --- |
| SEQ ID NO: 116: Chromobacterium violaceum aminotransferase (protein, listed as Chromobacterium violaceum, Chromobacterium violaceum (strain ATCC 12472 / DSM 30191 / JCM 1249 / NBRC 12614 / NCIMB 9131 / NCTC 9757), Chromobacterium violaceum aminotransferase) MQKQRTTSQWRELDAAHHLHPFTDTASLNQAGARVMTRGEGVYLWDSEGNKIIDGMAGLWCVNVGYGRKDFAEAARRQMEELPFYNTFFKTTHPAVVELSSLLAEVTPAGFDRVFYTNSGSESVDTMIRMVRRYWDVQGKPEKKTLIGRWNGYHGSTIGGASLGGMKYMHEQGDLPIPGMAHIEQPWWYKHGKDMTPDEFGVVAARWLEEKILEIGADKVAAFVGEPIQGAGGVIVPPATYWPEIERICRKYDVLLVADEVICGFGRTGEWFGHQHFGFQPDLFTAAKGLSSGYLPIGAVFVGKRVAEGLIAGGDFNHGFTYSGHPVCAAVAHANVAALRDEGIVQRVKDDIGPYMQKRWRETFSRFEHVDDVRGVGMVQAFTLVKNKAKRELFPDFGEIGTLCRDIFFRNNLIMRACGDHIVSAPPLVMTRAEVDEMLAVAERCLEEFEQTLKARGLA | accepted 7-aminoheptanote as substrate | accepted 7-aminoheptanol as a substrate | accepted heptane-1,7-diamine as substrate | accepted N7-acetyl-1,7-diaminoheptane as a substrate |  |
| SEQ ID NO: 126: Pseudomonas syringae aminotransferase (protein, Pseudomonas syringae pv. syringae (strain B728a), Pseudomonas syringae aminotransferase) MSANNPQTLEWQALSSEHHLAPFSDYKQLKEKGPRIITRAEGVYLWDSEGNKILDGMSGLWCVAIGYGREELADAASKQMRELPYYNLFFQTAHPPVLELAKAISDIAPEGMNHVFFTGSGSEGNDTMLRMVRHYWALKGQPNKKTIISRVNGYHGSTVAGASLGGMTYMHEQGDLPIPGVVHIPQPYWFGEGGDMTPDEFGIWAAEQLEKKILELGVENVGAFIAEPIQGAGGVIVPPDSYWPKIKEILSRYDILFAADEVICGFGRTSEWFGSDFYGLRPDMMTIAKGLTSGYVPMGGLIVRDEIVAVLNEGGDFNHGFTYSGHPVAAAVALENIRILREEKIVERVRSETAPYLQKRLRELSDHPLVGEVRGVGLLGAIELVKDKTTRERYTDKGAGMICRTFCFDNGLIMRAVGDTMIIAPPLVISFAQIDELVEKARTCLDLTLAVLQG | accepted 7-aminoheptanote as substrate | accepted 7-aminoheptanol as a substrate | accepted heptane-1,7-diamine as substrate | accepted N7-acetyl-1,7-diaminoheptane as a substrate | accepted 7-oxoheptanoate as a substrate |
